# Target: ERF5 (Solanum lycopersicum, UniProt Q6Q4I4 1-244)
# Experiment: EMSA; EMSA Kit with SYBR Green & SYPRO Ruby stains (Invitrogen), per kit instructions; buffer, salt, pH, temperature not stated
# Conditions: protein: recombinant; tags: pET-32a vector fusion (His control used); label: none (SYBR Green stain)
# Sequence of ERF5 (Q6Q4I4 entry or part of it): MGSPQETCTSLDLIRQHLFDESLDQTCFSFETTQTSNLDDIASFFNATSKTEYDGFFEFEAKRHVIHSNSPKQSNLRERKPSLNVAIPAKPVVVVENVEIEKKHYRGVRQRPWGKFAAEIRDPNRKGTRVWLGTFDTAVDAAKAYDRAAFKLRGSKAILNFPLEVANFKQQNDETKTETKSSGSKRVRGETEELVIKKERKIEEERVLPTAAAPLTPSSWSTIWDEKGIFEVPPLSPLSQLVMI
row,Binder,binding result
1,ATG18h-competitor (mutated DRE) (dsDNA) DNA 1: GCGGTGAAAAGATTGACGGACGAAACGTGA DNA 2: TCACGTTTCGTCCGTCAATCTTTTCACCGC,no binding
2,ATG8d promoter probe (WT DRE) (dsDNA) DNA 1: TCACGTTACATATGACCGACATAAAGATAA DNA 2: TTATCTTTATGTCGGTCATATGTAACGTGA,binds
3,ATG18h promoter probe (WT DRE) (dsDNA) DNA 1: GCGGTGAAAAGACCGACGGACGAAACGTGA DNA 2: TCACGTTTCGTCCGTCGGTCTTTTCACCGC,binds
4,ATG8d-competitor (mutated DRE) (dsDNA) DNA 1: TCACGTTACATATGACAAACATAAAGATAA DNA 2: TTATCTTTATGTTTGTCATATGTAACGTGA,no binding

# — publication PMC6230944, “Mitochondrial alternative oxidase‐dependent autophagy involved in ethylene‐mediated drought tolerance in Solanum lycopersicum”
